Experimental data taken from patent US12077763B2, “RNA-based control of powdery mildew” (Greenlight Biosciences, Inc., priority 2021, dated 2024).

B1: GS3602 (nucleic acid)
sense: CUUGGAACCGGUAUAUAUCCUAUGCAGUCCAAAAGAGUCCAGGAGUUCGGUAUCGGAUCAUAACACCAAACAUCGUUAUACCAUUGAAGACCAUUUGUUCCGCCAAACAAGUAAAGCUUUUCAUUAUAUGUCACAACUGAGUGAUUUGUUCUAGCUGAUGGUAUUUGUCCUACUGGGGGUCCACCAUCCUCACUAUUUUUAAUGAGAAUUUCCCACCUGUUCGUAGGGACUUGCAAAAGAUUCAAAUCAAAAGCCACAAGGUCAUUCAUAAAAUAACCCUCUACUUGCCCCCCGAAUACGUAGAUUUUAGACCCUAGUAUAUUGAGAGAAUGACCAUAACGCCCCGCGGG
antisense: CCCGCGGGGCGUUAUGGUCAUUCUCUCAAUAUACUAGGGUCUAAAAUCUACGUAUUCGGGGGGCAAGUAGAGGGUUAUUUUAUGAAUGACCUUGUGGCUUUUGAUUUGAAUCUUUUGCAAGUCCCUACGAACAGGUGGGAAAUUCUCAUUAAAAAUAGUGAGGAUGGUGGACCCCCAGUAGGACAAAUACCAUCAGCUAGAACAAAUCACUCAGUUGUGACAUAUAAUGAAAAGCUUUACUUGUUUGGCGGAACAAAUGGUCUUCAAUGGUAUAACGAUGUUUGGUGUUAUGAUCCGAUACCGAACUCCUGGACUCUUUUGGACUGCAUAGGAUAUAUACCGGUUCCAAG
B2: GS3478 (nucleic acid)
sense: ACCGUCCUGAAAGUAAAGGUGAAAAGAAAGAGCGUCUUCUCAAGGAAGCUACAGCUAUUAAAAAUGGCAACAAGGAGGAUGUCAGUAAGAAGCCAUACACAGUAAAGUAUGGACUCAAUCAUGUCGUUGGUUUGGUUGAGAAUAAGAAAGCUUCUCUAGUCUUAAUACCCAAUGAUGUCGAUCCUAUAGAGUUGGUUAUAUUUCUUCCAGCUCUUUGUCGAAAGAUGGGAGUUCCUUAUGCUAUCAUUAAAGGAAAAGCUAGACUUGGUACUGUUGUACACAAGAAAACUGCUGCUGUAUUGGCAAUAACUGAAGUUCGAUCCGAAGAUAAAUCAGAGCUAUCAAAAUUAAUCCAAGCUAUUAAAGAAGGCUACUCUGAGAAAUAUGAAGAAGCUAAG
antisense: CUUAGCUUCUUCAUAUUUCUCAGAGUAGCCUUCUUUAAUAGCUUGGAUUAAUUUUGAUAGCUCUGAUUUAUCUUCGGAUCGAACUUCAGUUAUUGCCAAUACAGCAGCAGUUUUCUUGUGUACAACAGUACCAAGUCUAGCUUUUCCUUUAAUGAUAGCAUAAGGAACUCCCAUCUUUCGACAAAGAGCUGGAAGAAAUAUAACCAACUCUAUAGGAUCGACAUCAUUGGGUAUUAAGACUAGAGAAGCUUUCUUAUUCUCAACCAAACCAACGACAUGAUUGAGUCCAUACUUUACUGUGUAUGGCUUCUUACUGACAUCCUCCUUGUUGCCAUUUUUAAUAGCUGUAGCUUCCUUGAGAAGACGCUCUUUCUUUUCACCUUUACUUUCAGGACGGU
B3: GS3523 (nucleic acid)
sense: UAACGAGAGAGAAUACACGGUAAAGACAGUAGUAUGGCAUAUGAUGCAAAAUGUAGAAAAGAUUGUAAUUGAGUUGGCAGUAAGUUCAUUCACGAAAAAUGAAUUAUUUUCCACACCAUAUCCGGGCUGAGGAAGGAAGACAUUUGUUUUCAAGUCAAGUUAAUGAAAAAACCAAAAAUAAAACUCAAACACACAGUGAGUAAUUUUUAUUAAGGUGGUCCAAUAAUAAUUUUUUCUGACAUGUACUCCUUGUAGUUUUGAGAUGAAAAUAGAGAUAAUAUUGAGUCUGUCGUUAUCCGAAACAGUUUAUGUUAGAGGUUGAUAAAUGACGAUACAAAAUGUAUAUAUUAGGAAAUCAAUUUACCGUGACCAAUGAGAAAAGAGGAGGUCUAAUU
antisense: AAUUAGACCUCCUCUUUUCUCAUUGGUCACGGUAAAUUGAUUUCCUAAUAUAUACAUUUUGUAUCGUCAUUUAUCAACCUCUAACAUAAACUGUUUCGGAUAACGACAGACUCAAUAUUAUCUCUAUUUUCAUCUCAAAACUACAAGGAGUACAUGUCAGAAAAAAUUAUUAUUGGACCACCUUAAUAAAAAUUACUCACUGUGUGUUUGAGUUUUAUUUUUGGUUUUUUCAUUAACUUGACUUGAAAACAAAUGUCUUCCUUCCUCAGCCCGGAUAUGGUGUGGAAAAUAAUUCAUUUUUCGUGAAUGAACUUACUGCCAACUCAAUUACAAUCUUUUCUACAUUUUGCAUCAUAUGCCAUACUACUGUCUUUACCGUGUAUUCUCUCUCGUUA
B4: GS3526 (nucleic acid)
sense: UAUCCCUGAUUUCUAUAGUCUGAUGAAGAAUGAUUUUUGUAGGCAAUAGACUUUCUUCUCUUCCCAGAACAGCAGCUUCUACAGCAUCCACAACAGCUUAGGAAAGAGAAGCAAGAACAACAAAAUGAGUAUCCAAAGCACAAGCAGCGUGUCAUACAAAUGAUAAUUGAGAGGACUAUUAAGCCACCGAUAACAAGUCCGAUUAUUGCUGGCCAUUUGCAAUAAAUUUGUAUCAUGCAUUUAUCCCAGUUGGUGAAUGAAGAAGUAACGUUUGAUACUUGAUUAGUUAAUUGAUCACUCAACUGAUCACUUACAAGCCUUGGCCUAAGCAAACUAAUCUCCAAAAAAUUCAUGUUUCCAAUAUUAACACCUCCGUGAUCUUCAUUAAAUAAGUAA
antisense: UUACUUAUUUAAUGAAGAUCACGGAGGUGUUAAUAUUGGAAACAUGAAUUUUUUGGAGAUUAGUUUGCUUAGGCCAAGGCUUGUAAGUGAUCAGUUGAGUGAUCAAUUAACUAAUCAAGUAUCAAACGUUACUUCUUCAUUCACCAACUGGGAUAAAUGCAUGAUACAAAUUUAUUGCAAAUGGCCAGCAAUAAUCGGACUUGUUAUCGGUGGCUUAAUAGUCCUCUCAAUUAUCAUUUGUAUGACACGCUGCUUGUGCUUUGGAUACUCAUUUUGUUGUUCUUGCUUCUCUUUCCUAAGCUGUUGUGGAUGCUGUAGAAGCUGCUGUUCUGGGAAGAGAAGAAAGUCUAUUGCCUACAAAAAUCAUUCUUCAUCAGACUAUAGAAAUCAGGGAUA
B5: GS3525 (nucleic acid)
sense: CUGGAAUUGUUGCACUGGCCAUGUAAAGCAGUUUAUGACUCGUCUAAAUAUUUAAUUACGGCUAUGCACGGAGAGCUUGGGGUUACUGUUUUUUUUUCUCAAAAAUAUGCCGGUGGGAUUCGAAUUGGUCCGGAUAUUUUUUCUGUAAAUAAUUGAGUGACGGCUUUGUACUCGUGAUAAUUACAGACAAAUCUAAUAUAAUGUGCUUAUCCUUCUAACGAACUUCGGAGAAUGAUUUGUUUUAUUGAGUGAUUAGUUGACUUGUUUUAUUAGUUAUGGUUAUCAAACGAUCACAUAAAAAAACGCAUACUUUUUACAAUGAAGUGAUUGUAUACCAAUGUUUCCCUUGGUGGCCCUCAAAAAACUAAGUUAGAUAGAU
antisense: AUCUAUCUAACUUAGUUUUUUGAGGGCCACCAAGGGAAACAUUGGUAUACAAUCACUUCAUUGUAAAAAGUAUGCGUUUUUUUAUGUGAUCGUUUGAUAACCAUAACUAAUAAAACAAGUCAACUAAUCACUCAAUAAAACAAAUCAUUCUCCGAAGUUCGUUAGAAGGAUAAGCACAUUAUAUUAGAUUUGUCUGUAAUUAUCACGAGUACAAAGCCGUCACUCAAUUAUUUACAGAAAAAAUAUCCGGACCAAUUCGAAUCCCACCGGCAUAUUUUUGAGAAAAAAAAACAGUAACCCCAAGCUCUCCGUGCAUAGCCGUAAUUAAAUAUUUAGACGAGUCAUAAACUGCUUUACAUGGCCAGUGCAACAAUUCCAG
B6: GS3524 (nucleic acid)
sense: UCAAGUCCACUUCGAUUUGUAAAGCAAGAAGUUAUGAGACCUUGAGAAUGACUGAGGUAGGCCGAAUAAGAUUUUCAGAUUCUAAAAUACUGGAUUUUGGUACCAAUUCAUGAUCCUUUCUGGCCCCCUUACAUUGGCGACAAGGCAGAUAGUCAUCGAGUUGGUCUUUUCCAGUCAAAGAAUGAUAAUCUCCAACGUCUUUCCGGGAAACAGAAGUUGUAUUGACAUUAAUUACAGCUGUGGAUGAGGAUGAACGAUAAUAUUGGCGUUGAGCUACAGGGAAGGGAUUCAACAGAUGCCAUUGCCAUUCAUAAUUUCCAUGAAGCCAAGUCGUUGAAGCCAGAGAUGCAAGUGUAUGGAAGAAUCCCAAGAGCCAAUUGAUUGAAGACAGAAUUACU
antisense: AGUAAUUCUGUCUUCAAUCAAUUGGCUCUUGGGAUUCUUCCAUACACUUGCAUCUCUGGCUUCAACGACUUGGCUUCAUGGAAAUUAUGAAUGGCAAUGGCAUCUGUUGAAUCCCUUCCCUGUAGCUCAACGCCAAUAUUAUCGUUCAUCCUCAUCCACAGCUGUAAUUAAUGUCAAUACAACUUCUGUUUCCCGGAAAGACGUUGGAGAUUAUCAUUCUUUGACUGGAAAAGACCAACUCGAUGACUAUCUGCCUUGUCGCCAAUGUAAGGGGGCCAGAAAGGAUCAUGAAUUGGUACCAAAAUCCAGUAUUUUAGAAUCUGAAAAUCUUAUUCGGCCUACCUCAGUCAUUCUCAAGGUCUCAUAACUUCUUGCUUUACAAAUCGAAGUGGACUUGA
B7: GS3601 (nucleic acid)
sense: CAAUUGCUGCAGCAUGACCUUCUCUUGGAACCGGUAUAUAUCCUAUGCAGUCCAAAAGAGUCCAGGAGUUCGGUAUCGGAUCAUAACACCAAACAUCGUUAUACCAUUGAAGACCAUUUGUUCCGCCAAACAAGUAAAGCUUUUCAUUAUAUGUCACAACUGAGUGAUUUGUUCUAGCUGAUGGUAUUUGUCCUACUGGGGGUCCACCAUCCUCACUAUUUUUAAUGAGAAUUUCCCACCUGUUCGUAGGGACUUGCAAAAGAUUCAAAUCAAAAGCCACAAGGUCAUUCAUAAAAUAACCCUCUACUUGCCCCCCGAAUACGUAGAUUUUAGACCCUAGUAUAUUGAGAGAAUGACCAUAACGCCCCGCGGGCCGUGGCCCGGCAGGUAUAGCUCUGGA
antisense: UCCAGAGCUAUACCUGCCGGGCCACGGCCCGCGGGGCGUUAUGGUCAUUCUCUCAAUAUACUAGGGUCUAAAAUCUACGUAUUCGGGGGGCAAGUAGAGGGUUAUUUUAUGAAUGACCUUGUGGCUUUUGAUUUGAAUCUUUUGCAAGUCCCUACGAACAGGUGGGAAAUUCUCAUUAAAAAUAGUGAGGAUGGUGGACCCCCAGUAGGACAAAUACCAUCAGCUAGAACAAAUCACUCAGUUGUGACAUAUAAUGAAAAGCUUUACUUGUUUGGCGGAACAAAUGGUCUUCAAUGGUAUAACGAUGUUUGGUGUUAUGAUCCGAUACCGAACUCCUGGACUCUUUUGGACUGCAUAGGAUAUAUACCGGUUCCAAGAGAAGGUCAUGCUGCAGCAAUUG

Each molecule was assayed on E. necator (assay: Leaf disc assay, dry inoculum (settling tower), decrease in disease severity / hyphal growth (Example 2)). Conditions: decrease in disease severity (hyphal growth) relative to untreated control; time point 1 (untreated control hyphal growth ≥50%); value ± SE.

In order of falling “% decrease =/− SE TP1” value:
1. B2  29 ± 4%
2. B4  22 ± 10%
3. B5  17 ± 9%
4. B3  8 ± 11%
5. B1  5 ± 6%
6. B6  3 ± 11%

Same assay, conditions: decrease in disease severity (hyphal growth) relative to untreated control; time point 2; value ± SE

In order of falling “% decrease =/− SE TP2” value:
1. B5  34 ± 8%
2. B6  22 ± 12%
3. B2  13 ± 9%
4. B3  12 ± 10%
5. B4  11 ± 10%
6. B1  7 ± 8%
7. B7  2 ± 3%
